The text below walks through data of a protein production outcome set (Wang et al. 2014).

The data set is described as follows: label from the status in PepcDB records.
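Also: failed if final PepcDB status was selected cloned or expressed and not failed if soluble or beyond.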

Regarding “MAVPRWAVRDLTQISSARELSLRLEQARNDFRATVGSICYFNASARTPGQFDDEYIMTDQSLTYVYADGVTAQSCAMNRLLPSSSSNFGAAATAIPPWLLDPPRLNRLLREGTDEGGLVNYYEGPHKNAFFLAIMRSCIFVRPGADEINGVSYDFFARSGNYTEQLEHHHHHH”, the protein production result is recorded as “failed”.

Regarding “MAVRKLGVLTSGGDCPGLNAVIRAIARHAVGNYGWELWGIAYATQGLLKRQAIALSPHHFDRQSLDPLLCSGGTILGSINRGDTLAHQAEILAGYQELGLDALIGIGGDGSLAILRQLAEAGRWQFIGIPKTIDNDVALTERAIGFDTAIHTVAEALLSLGSTAASHDRIMIAEVMGRQSGHLALQGGIAGGADVILLPEIPYRLLELCHYLQQLRDRWQRRYAVIAIAEGTHHPPEVTQGPGSLGEQLVQAITAQDPTLDARVTVLGHVQRGGNPVASDRLLATQMGYAAVERLAAGASGEMMAWQGGRVVSVPLEAVCLQSPTLVDPHSPLVDTAAGLGIFLGDRSLTPWRGSACPTH”, the protein production entry is listed as “failed”.

In the case of “MAVSSLGNIYCAAAGFHSVPIVICQTSCVRWRGSGRTSGAICCAECVARGSDVRAYFRGQDKDAVGKDAVAPGVGCVQPVAIGIHAGLYRWRDRLRIGIDGDHARCRPDVAHGELDVGASAVPRRGSHGHRGRARAGGLVQELSVREQPPVDHRHLRAVLRLAGAAALLTQGRNAQGAVRELVCARYRHAVSGPRQPQGRGTGATSGGCVVAPGQTVVSVSRRHPQPHRRIIAIQGRATAGCYRCWRAGGSGGAGRLRQGVAGRWPVQGAPRHHPRADRYADRCDRAGCAGSPTIDRAGTQGRGCNASPQDLSSTLMDFVVPHDHPCLPGHFPGRPVVPGVVVLDHVLQAVEALHGPRAAARLPQVKFVQPLLPGQTASVTLEGDGPRWRFRVQRADVVLVSGELVAEAGT”, the protein production result was “failed”.

“MAVSSNGGAIKAVIYDCDGVMFDSFEANLAFYQRIMEMMGRPRLSRDNEEQMRILHTYANREVLAHFFPSPGDWEEAVRCAGAIDYRELVPLMIMEEGFREALDTLKGRVGLGVCTNRSTSMDMVLRLFSLDSYFSIVMTASRVTNPKPHPEPLLKVLEHFGIGPREALFVGDSEVDRLSAEAAGVPFVAYKAPLPAAYRMEHHREIIDLLG”: the protein production entry is “not failed”.

With “MAVTSPNMPASIRWGGIVALIQSTIGFGYAFFLIYREATGETDPSIVYETDNANTWVGYGTAAFFIIVFGTVVAGAINMMKGHRWGRGAVVMLNIILLPAAYYMFIEGRFSWAIVTGISALFVLGALFNKRAVLWANNEI”, the protein production result is “failed”.

For “MAVVGFDAAKISILDENEKVTDTFTIDRSSGGTIEANISGLAPNMNVVYASNVPFYVSAKGTSEVKCELTVADLDDLGTEAVNKILGREQDSTTKITKVGVNTTPPYCVLELISKDKQGKGLFLGLLKGKFTFDGEDMKTSDNNGSQLSEDKVTMQCISRKDGYIYAKAKEADGTTQADFEKFIMPAATAPAAG”, the protein production entry is given as “failed”.

On to “MAVYHLLLSSPPSLLLLPPSPRRPNLTLIRRIPAHPRLGNSTSLLSSSSPVIRKILVRSTLREDQPIASDSESSPTLLIGEDSAAFELGKQKLVSWVYFGVVLGVVLFILNVVWIDNSTGFGKSFIDAVSNISGSPEVAMLMLILIFAIVHSGLASLRDIGEKLIGERAFRVLFAGISLPLAMSTIVYFINHRYDGSQLWQLQGVPGVHEAIWVANFVSFFFLYPSTFNLLEVAAVDKPKMHLWETGIMRITRHPQMVGQIVWCLAHTLWIGNTVAASASLGLIAHHLFGAWNGDRRLAKRYGEDFESIKKRTSVIPFAAIFEGRQVLPEDYYKEFVRLPYLAITALTVGAYFAHPLMQGASFRLHW”, for which the protein production result is “failed”.

On to “MAVYLDKEKPVSERVEDLLSKMTLAEKCGQLNQRMYGWEAFSRDGETFHITEKFKEEVTRFEGIGALYGLFRADPWSKMNKDTGVSRKNAGKVANKIQRYVIENTRLGIPVLLAEEVPHGHQALDSESYPVNLARAASFNPELQKQVASAITEEISEKGVHLALASALDILRDPRWGRAEECYGEDPYLAAELTAAITEGFQASGKIAVILKHFAAQGEPIGGHNSGPVSIGVRELREIFLEPMRAGIRSGALGVMAAYNEIDGVPCHANKELLTTILREEMGFSGIVMADGCALDRLLKLNPDPKKAAKMALEAGVDLSLWDEVFPFLEESVEKGILDEKVVDDAVRRVLQVKFQLGLFEQPFVEEEI”, for which the protein production entry is “failed”.

Turning to “MAYAHVFASLTISTISLRRFLPRLHRNHSVKPNSRIICNLKLNYSAGKFREMGLSRSVELDQFITSEEEEGEAEEIGEGFFEAIEELERMTREPSDILEEMNHRLSSRELQLMLVYFAQEGRDSWCTLEVFEWLKKENRVDEEIMELMVSIMCGWVKKLIEDECNAHQVFDLLIEMDCVGLKPGFSMMDKVIALYCEMGKKESAVLFVKEVLRRRDGFGYSVVGGGGSEGRKGGPVGYLAWKFMVDGDYRKAVDMVMELRLSGLKPEAYSYLIAMTAIVKELNSLGKTLRELKRFARAGFVAEIDDHDRVLIEKYQSETLSRGLQLATWAVEEGQENDSIIGVVHERLLAMYICAGRGPEAEKQLWKMKLAGREPEADLHDIVMAICASQKEVNAVSRLLTRVEFMGSQRKKKTLSWLLRGYVKGGHFEEAAETLVSMIDSGLHPEYIDRVAVMQGMTRKIQRPRDVEAYMSLCKRLFDAGLPKTNLNDLRTSVSSYVFLKLSESEGESKAGGRNKNHRGKIVMELEDPTMADSTIKLTVKFGGKSIPLSVSPDCTVKDLKSQLQPITNVLPRGQKLIFKGKVLVETSTLKQSDVGSGAKLMLMASQGLHQGEGPILKEASIRPISRTVVSDKVDQRKPSVLVDKNRTDRWKATGVIALAQANLKEIPEEVWDCGSGVRVLDISENFIKEVPAKISSFGSMQKLFLQGNGLSDESIQWEGIASLKRLMLLSISHNNLTVLPSAMGSLTSLRQLDVTNNKLTSLPNELGLLTQLEILKANNNRITSLPESIGNCSFLMEVDLSANIISELPETFTKLRNLKTLELNNTGLKTLPSALFKMCLQLSTLGLHNTEITVEFLRQFEGYDDFDERRRTKHQKQLDFRVVGSGQFDEGADKSW”, the protein production result is “failed”.

Take “MAYDGLFTKKMVESLQFLTTGRVHKINQPDNDTILMVVRQNRQNHQLLLSIHPNFSRLQLTTKKYDNPFNPPMFARVFRKHLEGGIIESIKQIGNDRRIEIDIKSKDEIGDTIYRTVILEIMGKHSNLILVDENRKIIEGFKHLTPNTNHYRTVMPGFNYEAPPTQHKINPYDITGAEVLKYIDFNAGNIAKQLLNQFEGFSPLITNEIVSRRQFMTSSTLPEAFDEVMAETKLPPTPIFHKNHETGKEDFYFIKLNQFNDDTVTYDSLNDLLDRFYDARGERERVKQRANDLVRFVQQQLHKYQNKLAKLIEEYEQSKNKDTEQLYGELITANIYRIKQGDKEVTALNYYTNEEVVIPLNPTKSPSANAQYYYKQYNRMKTRERELQHQIQLTKDNIDYFSTIEQQLHHISVHDIDEIRDELAEQGFMKQRKNQTKKKKAQ”: the protein production result is “not failed”.

For the sequence “MAYLVFAYLVGSLVAGLLFFPEVRGKDLPGGSGVFRRKGPWAALLAVAFDLGKGALVALLTPEAYLPWAGALLVAGHTWPVFFRFRGGGGIAPSLGFFLVWRPAETLWATLFGLGVAGLYHLLFWRRRRKGIYPIPFGAIFGYLLLVYTLSGEARLGALLVAGVVLLRGLQILAGRW”, the protein production result is given as “failed”.

With “MAYRKQLTRLKAPYLKRILLDPGRVEDWEKYPWNLPLFRGREFELEFTAPITIIVGENGTGKSTLLEAIGALAGYDEAGGGKGYMPVDHSRAIDKSGAALADNFRCHWLPKVTAGWFFRAESFYSVARYLDEAARESGATPPDFLSWSHGEGFIRFFEERCRRQGIYILDEPESALSPSRQIELLKMLRRMDQSGTAQVIMATHSPLLMACPGARLFRISRFGLEPADFRDTDHFRMLRDFSNDPDGFLAEALYEDEA”, the protein production entry was “failed”.

On to “MAYSYTEKKRIRKDFSKLPDVMDVPYLLAIQLDSYREFLQAGATKEQFRDVGLHAAFKSVFPIISYSGNAALEYVGYRLGEPAFDVKECVLRGVTFAVPLRVKVRLIIFDRESSNKAIKDIKEQEVYMGEIPLMTENGTFIINGTERVIVSQLHRSPGVFFDHDRGKTHSSGKLLYSARIIPYRGSWLDFEFDPKDCVFVRIDRRRKLPASVLLRALGYSTEEILNAFYATNVFHIKGETLNLELVPQRLRGEVASIDIKDGSGKVIVEQGRRITARHINQLEKAGVSQLEVPFDYLIGRTIAKAIVHPATGEIIAECNTELTLDLLAKVAKAQVVRIETLYTNDIDCGPFISDTLKIDNTSNQLEALVEIYRMMRPGEPPTKEAAETLFGNLFFSAERYDLSAVGRMKFNRRIGRTEIEGPGVLSKEDIIDVLKTLVDIRNGKGIVDDIDHLGNRRVRCVGEMAENQFRVGLVRVERAVKERLSMAESEGLMPQDLINAKPVAAAIKEFFGSSQLSQFMDQNNPLSEITHKRRVSALGPGGLTRERAGFEVRDVHPTHYGRVCPIETPEGPNIGLINSLATYARTNKYGFLESPYRVVKDSLVTDEIVFLSAIEEADHVIAQASATLNEKGQLVDELVAVRHLNEFTVKAPEDVTLMDVSPKQVVSVAASLIPFLEHDDANRALMGSNMQRQAVPTLRADKPLVGTGMERNVARDSGVCVVARRGGVIDSVDASRVVVRVADDEVETGEAGVDIYNLTKYTRSNQNTCINQRPLVSKGDVVARGDILADGPSTDMGELALGQNMRVAFMPWNGFNFEDSICLSERVVQEDRFTTIHIQELTCVARDTKLGPEEITADIPNVGEAALNKLDEAGIVYVGAEVQAGDILVGKVTPKGETQLTPEEKLLRAIFGEKASDVKDTSLRVPTGTKGTVIDVQVFTRDGVERDSRALSIEKMQLDQIRKDLNEEFRIVEGATFERLRAALVGAKAEGGPALKKGTEITDDYLDGLERGQWFKLRMADDALNEQLEKAQAYISDRRQLLDDKFEDKKRKLQQGDDLAPGVLKIVKVYLAIKRRIQPGDKMAGRHGNKGVVSVIMPVEDMPHDANGTPVDIVLNPLGVPSRMNVGQILETHLGLAAKGLGEKINRMLEEQRKVAELRKFLHEIYNEIGGREENLDELGDNEILALAKNLRGGVPMATPVFDGAKEREIKAMLKLADLPESGQMRLFDGRTGNQFERPTTVGYMYMLKLNHLVDDKMHARSTGSYSLVTQQPLGGKAQFGGQRFGEMEVWALEAYGAAYTLQEMLTVKSDDVNGRTKMYKNIVDGDHRMEAGMPESFNVLIKEIRSLG”, for which the protein production entry is reported as “failed”.

On to “MAYVTLYPNLILEALGKVRYPGTGKDLVSAGMVEDDIRIDGNKVSFSLIFDKANDPFIKSVVKAAESAILTYISEDVNIKGNISVKSKQAIPAPPAKLLPGVKNIIAVFSGKGGVGKSTVTANLAVSLAKSGYRVGLLDADIFGPSMPKMFHCEESRPVLEEVDGRELIVPEEVMGVKILSIGFFVDPDNAVLWRGSMAGNALTQLIRDANWGELDYFLIDMPPGTSDIHLTLVQTLAITGAVVVTTPQDVALADARKGISMFVGEKINVPVLGLVENMSWFTPAELPQNKYYIFGRDGGKNLAEELNIPLLGQIPLVQGICQSGDEGIPVAVRDDSMMGIAFRELAARVVEQVDYRNEHLDPTKVVEVAHR”, for which the protein production result is listed as “failed”.

Regarding “MCDKDIYNNKEMIILNKQQVTKAIEKVLNSSKIGVLSTAHHNKPNSRYMVFYNDDLNLYTKTNVNSLKVEEIENNPDAHILLGYNETTNNSFVEIDATIEVVKDQKVIDWLWETQDKTFFNSKEDPELCVLKVIPRSIKLMNDDELDTPATIEL”, the protein production result is “not failed”.

Consider “MCEHHHAAKHILCSQCDMLVALPRLEHGQKAACPRCGTTLTVAWDAPRQRPTAYALAALFMLLLSNLFPFVNMNVAGVTSEITLLEIPGVLFSEDYASLGTFFLLFVQLVPAFCLITILLLVNRAELPVRLKEQLARVLFQLKTWGMAEIFLAGVLVSFVKLMAYGSIGVGSSFLPWCLFCVLQLRAFQCVDRRWLWDDIAPMPELRQPLKPGVTGIRQGLRSCSCCTAILPADEPVCPRCSTKGYVRRRNSLQWTLALLVTSIMLYLPANILPIMVTDLLGSKMPSTILAGVILLWSEGSYPVAAVIFLASIMVPTLKMIAIAWLCWDAKGHGKRDSERMHLIYEVVEFVGRWSMIDVFVIAVLSALVRMGGLMSIYPAMGALMFALVVIMTMFSAMTFDPRLSWDRQPESEHEES”, for which the protein production result is listed as “failed”.
